Here are results for four molecules from patent US20250163121A1 (AKSTON BIOSCIENCES, published 2025).

Residue numbers refer to the chain shown, from its start.

B1: insulin-Fc fusion protein of SEQ ID NO: 31 (SEQ ID NO: 26 with des hinge D and the mutation cNg-NB138-K; canine IgGB Fc fragment SEQ ID NO: 16) (Fc fusion)
chain: FVNQHLCGSDLVEALALVCGERGFFYTDPTGGGPRRGIVEQCCHSICSLYQLENYCNGGGGAGGGGCPKCPAPEMLGGPSVFIFPPKPKDTLLIARTPEVTCVVVDLDPEDPEVQISWFVDGKQMQTAKTQPREEQFKGTYRVVSVLPIGHQDWLKGKQFTCKVNNKALPSPIERTISKARGQAHQPSVYVLPPSREELSKNTVSLTCLIKDFFPPDIDVEWQSNGQQEPESKYRTTPPQLDEDGSYFLYSKLSVDKSRWQRGDTFICAVMHEALHNHYTQESLSHSPG
notes: Non-glycosylated homodimer made in HEK293 cells; 98.1% homodimer; also called cNg-K with des hinge D
B2: insulin-Fc fusion protein of SEQ ID NO: 26 (insulin polypeptide SEQ ID NO: 5, linker SEQ ID NO: 9, canine IgGB Fc fragment SEQ ID NO: 12) (Fc fusion)
chain: FVNQHLCGSDLVEALALVCGERGFFYTDPTGGGPRRGIVEQCCHSICSLYQLENYCNGGGGAGGGGDCPKCPAPEMLGGPSVFIFPPKPKDTLLIARTPEVTCVVVDLDPEDPEVQISWFVDGKQMQTAKTQPREEQFNGTYRVVSVLPIGHQDWLKGKQFTCKVNNKALPSPIERTISKARGQAHQPSVYVLPPSREELSKNTVSLTCLIKDFFPPDIDVEWQSNGQQEPESKYRTTPPQLDEDGSYFLYSKLSVDKSRWQRGDTFICAVMHEALHNHYTQESLSHSPG
notes: Disulfide-linked homodimer made in HEK293 cells; 93% homodimer
B3: insulin-Fc fusion protein of SEQ ID NO: 29 (SEQ ID NO: 26 with the mutation cNg-NB139-S; canine IgGB Fc fragment SEQ ID NO: 15) (Fc fusion)
chain: B2 chain with N139S
notes: Non-glycosylated homodimer made in HEK293 cells; 98.3% homodimer; also called cNg-S
B4: insulin-Fc fusion protein of SEQ ID NO: 22 (insulin polypeptide SEQ ID NO: 5, linker SEQ ID NO: 9, canine IgGA Fc fragment SEQ ID NO: 11) (Fc fusion)
chain: FVNQHLCGSDLVEALALVCGERGFFYTDPTGGGPRRGIVEQCCHSICSLYQLENYCNGGGGAGGGGRCTDTPPCPVPEPLGGPSVLIFPPKPKDILRITRTPEVTCVVLDLGREDPEVQISWFVDGKEVHTAKTQSREQQFNGTYRVVSVLPIEHQDWLTGKEFKCRVNHIDLPSPIERTISKARGRAHKPSVYVLPPSPKELSSSDTVSITCLIKDFYPPDIDVEWQSNGQQEPERKHRMTPPQLDEDGSYFLYSKLSVDKSRWQQGDPFTCAVMHETLQNHYTDLSLSHSPG
notes: Disulfide-linked homodimer made in HEK293 cells

For the test, the target named is T1, human insulin receptor (on human IM-9 cells) (human, UniProt P06213 28-1382).
T1 construct: whole, on cells; Endogenous receptor on IM-9 cells; the mature receptor is a processed alpha2-beta2 tetramer from one precursor; also called IR
T1 sequence (P06213 28-1382): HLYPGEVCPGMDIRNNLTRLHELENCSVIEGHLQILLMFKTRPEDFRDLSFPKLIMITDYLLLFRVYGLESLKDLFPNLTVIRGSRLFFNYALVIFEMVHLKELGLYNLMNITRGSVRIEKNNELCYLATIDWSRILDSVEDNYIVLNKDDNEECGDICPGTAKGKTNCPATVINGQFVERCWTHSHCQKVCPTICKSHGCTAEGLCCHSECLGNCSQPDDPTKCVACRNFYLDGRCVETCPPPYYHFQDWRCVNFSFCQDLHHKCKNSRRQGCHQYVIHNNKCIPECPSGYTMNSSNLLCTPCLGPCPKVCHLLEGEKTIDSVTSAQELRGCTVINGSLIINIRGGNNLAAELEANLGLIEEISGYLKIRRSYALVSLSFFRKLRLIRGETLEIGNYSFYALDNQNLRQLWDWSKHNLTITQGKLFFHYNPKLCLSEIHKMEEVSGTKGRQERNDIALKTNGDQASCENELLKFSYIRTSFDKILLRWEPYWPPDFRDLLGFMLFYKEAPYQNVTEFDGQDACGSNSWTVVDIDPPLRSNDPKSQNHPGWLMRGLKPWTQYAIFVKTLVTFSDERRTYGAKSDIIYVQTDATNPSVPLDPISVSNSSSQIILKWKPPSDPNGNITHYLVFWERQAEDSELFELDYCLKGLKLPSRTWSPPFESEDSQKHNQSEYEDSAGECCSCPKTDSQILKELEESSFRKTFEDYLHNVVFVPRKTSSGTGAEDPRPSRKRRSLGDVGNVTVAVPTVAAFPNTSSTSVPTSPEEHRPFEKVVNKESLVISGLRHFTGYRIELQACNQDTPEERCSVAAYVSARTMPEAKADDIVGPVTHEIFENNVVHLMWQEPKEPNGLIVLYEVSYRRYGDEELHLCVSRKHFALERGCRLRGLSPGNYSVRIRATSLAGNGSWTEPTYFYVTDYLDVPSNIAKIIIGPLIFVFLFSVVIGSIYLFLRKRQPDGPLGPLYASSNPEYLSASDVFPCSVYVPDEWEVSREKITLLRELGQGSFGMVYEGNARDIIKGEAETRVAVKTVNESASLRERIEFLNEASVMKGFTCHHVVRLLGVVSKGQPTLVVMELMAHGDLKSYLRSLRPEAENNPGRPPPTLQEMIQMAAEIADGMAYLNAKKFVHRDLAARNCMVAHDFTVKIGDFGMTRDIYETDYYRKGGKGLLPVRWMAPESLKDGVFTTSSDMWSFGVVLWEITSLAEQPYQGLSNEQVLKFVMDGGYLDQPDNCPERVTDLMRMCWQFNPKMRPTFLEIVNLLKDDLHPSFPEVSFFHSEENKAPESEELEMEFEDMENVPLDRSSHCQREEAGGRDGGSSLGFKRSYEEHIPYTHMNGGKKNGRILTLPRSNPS
Kind of test: competition with biotinylated RHI on human IM-9 cells, flow cytometry, 4 C. As to the method: Biotinylated-RHI was diluted in FACS staining medium to a concentration of 1.25 μg/mL. 40 μL of the serially diluted test compound and 8 μL of 1.25 μg/mL Biotin-RHI were added into each well of a V bottom microtiter plate, mixed by slow vortexing, and placed on ice. 40 μL of an IM-9 cell suspension (8×10^6 cells/mL) was then added to each well by multichannel pipette, mixed again gently and incubated on ice for 30 min to allow competitive binding on the insulin receptor on IM-9 cells. Cells were then washed twice with 275 μL of ice-cold FACS wash buffer (HBSS/2 mM EDTA/0.1% Na-azide+0.5% horse serum) by centrifuging the V-bottom plate at 3000 rpm for 3 min and aspirating the supernatant. Cells were then resuspended in 40 μL of FACS staining medium containing 1:100 diluted Streptavidin-PE (Life Technologies) for 20 min on ice. Cells were then washed once with 275 μL of ice-cold FACS buffer and finally fixed with 3% paraformaldehyde for 10 min at room temp. Cells were then washed once with 275 μL of ice-cold FACS buffer and resuspended in 250 μl of FACS buffer for analysis.
The V-bottom plates containing cells were then analyzed on a Guava 8-HT flow cytometer (Millipore). Biotinylated-RHI binding to insulin receptor was quantitated by the median fluorescence intensity (MFI) of the cells on the FACS FL-2 channel for each concentration of the test compound. Control wells were labeled only with biotinylated-RHI and were used to calculate the percent (%) inhibition resulting from each test compound concentration. The % inhibition by test compounds of biotinylated-RHI binding on IM-9 cells was plotted against log concentrations of the test compound, and the resulting IC50 values were calculated using GraphPad Prism (GraphPad Software, La Jolla, CA) for the test compounds. Lower IC50 values of the test compound therefore indicate greater levels of biotinylated-RHI inhibition at lower concentrations indicating stronger binding of the insulin-Fc fusion protein to the insulin receptor. A control compound, such as unlabeled recombinant human insulin (RHI) was also used as an internal standard to generate an RHI IC50 against which a given compound IC50 could be ratioed (IC50(compound)/IC50(RHI)). Lower IC50 ratios have more similar binding to RHI (stronger binding to insulin receptor), while higher IC50 ratios have weaker binding to the insulin receptor relative to RHI.
In general, IC50 refers to the concentration at which inhibition is half-maximal. Take B1: the IC50 stood at 147 nM.
The molecule B2 showed an IC50 of 28 nM.
B3: the IC50 was determined as 145 nM.
For B4 the value was 2730 nM.
